The values that follow come from article doi:10.1101/2022.04.24.489327.

The target in the data set is LRRK2 wild-type (UniProt Q5S007 1-2527). Description: EMSA. On the technique in general: In EMSA bound probe runs differently from free probe, usually more slowly.
LRRK2 wild-type, sequence (Q5S007 whole entry): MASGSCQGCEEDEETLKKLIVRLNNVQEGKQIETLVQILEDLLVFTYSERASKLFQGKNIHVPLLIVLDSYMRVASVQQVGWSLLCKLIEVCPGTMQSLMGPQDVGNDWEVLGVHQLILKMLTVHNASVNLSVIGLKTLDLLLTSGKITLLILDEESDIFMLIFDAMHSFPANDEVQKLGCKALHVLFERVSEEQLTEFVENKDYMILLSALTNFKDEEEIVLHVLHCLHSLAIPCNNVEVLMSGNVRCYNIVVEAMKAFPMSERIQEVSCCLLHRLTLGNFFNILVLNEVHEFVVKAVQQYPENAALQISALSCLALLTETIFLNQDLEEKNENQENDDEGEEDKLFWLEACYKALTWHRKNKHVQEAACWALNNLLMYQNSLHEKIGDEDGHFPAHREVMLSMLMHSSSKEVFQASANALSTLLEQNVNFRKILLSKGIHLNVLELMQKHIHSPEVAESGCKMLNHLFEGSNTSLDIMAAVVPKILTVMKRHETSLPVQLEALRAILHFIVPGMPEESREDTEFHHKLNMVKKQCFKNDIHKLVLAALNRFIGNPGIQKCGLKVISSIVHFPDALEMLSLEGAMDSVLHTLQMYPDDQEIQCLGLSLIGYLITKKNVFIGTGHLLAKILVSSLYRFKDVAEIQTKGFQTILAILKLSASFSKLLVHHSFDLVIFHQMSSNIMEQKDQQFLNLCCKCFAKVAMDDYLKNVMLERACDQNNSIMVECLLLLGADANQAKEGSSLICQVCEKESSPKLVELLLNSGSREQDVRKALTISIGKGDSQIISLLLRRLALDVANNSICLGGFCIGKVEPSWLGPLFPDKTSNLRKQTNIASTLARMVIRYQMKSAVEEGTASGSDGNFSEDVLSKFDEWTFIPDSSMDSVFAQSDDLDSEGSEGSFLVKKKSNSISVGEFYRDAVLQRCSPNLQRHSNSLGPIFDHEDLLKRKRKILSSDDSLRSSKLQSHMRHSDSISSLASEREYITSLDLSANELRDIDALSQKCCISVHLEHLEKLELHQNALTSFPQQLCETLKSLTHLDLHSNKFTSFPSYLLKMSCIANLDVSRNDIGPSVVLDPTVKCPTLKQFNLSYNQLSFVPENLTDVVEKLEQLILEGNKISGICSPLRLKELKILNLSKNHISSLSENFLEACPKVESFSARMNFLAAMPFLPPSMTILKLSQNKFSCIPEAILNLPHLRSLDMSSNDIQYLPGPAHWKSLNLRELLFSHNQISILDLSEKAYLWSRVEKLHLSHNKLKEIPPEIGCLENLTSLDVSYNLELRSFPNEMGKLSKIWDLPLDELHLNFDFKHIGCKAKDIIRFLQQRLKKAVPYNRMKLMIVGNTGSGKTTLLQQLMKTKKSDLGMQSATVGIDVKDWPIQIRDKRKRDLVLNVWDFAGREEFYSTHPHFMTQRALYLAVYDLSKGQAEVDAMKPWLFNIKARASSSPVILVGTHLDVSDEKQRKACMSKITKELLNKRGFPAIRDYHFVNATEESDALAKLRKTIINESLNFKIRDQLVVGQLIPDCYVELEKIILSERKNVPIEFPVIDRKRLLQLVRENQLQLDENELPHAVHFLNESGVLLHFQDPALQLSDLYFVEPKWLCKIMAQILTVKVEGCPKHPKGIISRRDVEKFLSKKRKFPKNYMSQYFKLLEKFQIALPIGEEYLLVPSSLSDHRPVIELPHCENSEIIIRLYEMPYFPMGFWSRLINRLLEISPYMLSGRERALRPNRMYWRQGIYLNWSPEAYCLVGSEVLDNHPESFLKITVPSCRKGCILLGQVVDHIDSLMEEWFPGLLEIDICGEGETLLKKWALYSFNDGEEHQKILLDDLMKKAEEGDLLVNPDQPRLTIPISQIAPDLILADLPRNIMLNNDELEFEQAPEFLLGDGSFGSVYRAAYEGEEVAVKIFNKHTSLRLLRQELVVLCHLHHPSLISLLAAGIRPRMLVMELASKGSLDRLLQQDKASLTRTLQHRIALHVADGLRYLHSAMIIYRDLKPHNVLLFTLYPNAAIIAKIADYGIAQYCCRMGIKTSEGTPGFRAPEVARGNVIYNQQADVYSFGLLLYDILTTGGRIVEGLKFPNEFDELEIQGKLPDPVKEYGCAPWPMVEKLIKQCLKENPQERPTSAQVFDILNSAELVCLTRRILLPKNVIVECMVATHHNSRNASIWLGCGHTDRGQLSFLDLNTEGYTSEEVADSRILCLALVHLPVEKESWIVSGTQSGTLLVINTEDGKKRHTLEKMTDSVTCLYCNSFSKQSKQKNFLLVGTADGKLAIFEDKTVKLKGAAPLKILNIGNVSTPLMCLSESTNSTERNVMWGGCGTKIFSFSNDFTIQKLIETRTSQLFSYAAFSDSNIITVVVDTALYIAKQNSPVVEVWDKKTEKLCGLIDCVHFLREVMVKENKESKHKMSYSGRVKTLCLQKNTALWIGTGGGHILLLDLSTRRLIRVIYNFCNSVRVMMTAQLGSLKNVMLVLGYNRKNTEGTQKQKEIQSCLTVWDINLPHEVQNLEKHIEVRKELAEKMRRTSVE

As for AGAAAAAAUAUUUAUUGUAUUUUAGUAUAUUUAUAUAA (ssRNA) [BDNF 3'UTR neuronal ELAV binding segment (U-rich)], the binding result was “no binding”.
GGAAACAGUCAUUUGCGCACAACUUUAAAAGUCUGCAU (ssRNA) [BDNF 3'UTR control segment without neuronal ELAV sites]: the binding result is on record as “no binding”.
